Source: patent US20240059797A1 (GRITSTONE BIO, published 2024)

Biological target: T1, HLA-A*01:01_… (HLA-PEPTIDE target G2), recombinant biotinylated complex (human, enzymatically biotinylated (BirA))
T1 construct: also called G2-pHLA
Assay: phage panning, scFv ELISA;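 also: scFv binders from three to four bead panning rounds, tested as PPEs by ELISA on streptavidin plates carrying peptide-HLA complex (2 µg/ml), detected via anti-V5 and HRP anti-mouse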
Method: Phage library screening was carried out according to the overall screening design described above. Three to four rounds of bead-based panning were performed to identify scFv binders to each peptide-HLA complex. For each round of panning, an aliquot of starting phage was set aside for input titering and the remaining phage was depleted three times against Dynabead M-280 streptavidin beads (Life Technologies) followed by a depletion against Streptavidin beads pre-bound with 100 μmoles of pooled negative peptide-HLA complexes. For the first round of panning, 100 μmoles of peptide-HLA complex bound to streptavidin beads was incubated with depleted phage for 2 hours at room temperature with rotation. Three five-minute washes with 0.5% BSA in 1×PBST (PBS+0.05% Tween-20) followed by three five-minute washes with 0.5% BSA in 1×PBS were utilized to remove any unbound phage to the peptide-HLA complex bound beads. To elute the bound phage from the washed beads, 1 ml 0.1M TEA was added and incubated for 10 minutes at room temperature with rotation. The eluted phage was collected from the beads and neutralized with 0.5 ml 1M Tris-HCl pH 7.5. The neutralized phage was then used to infect log growth TG-1 cells (OD₆₀₀=0.5) and after an hour of infection at 37° C., cells were plated onto 2YT media with 100 μg/ml carbenicillin and 2% glucose (2YTCG) agar plates for output titer and bacterial growth for subsequent panning rounds.
96-well and/or 384-well streptavidin coated plates (Pierce) were coated with 2 μg/ml peptide-HLA complex in HLA buffer and incubated overnight at 4° C. Plates were washed three times between each step with PBST (PBS+0.05%). The antigen coated plates were blocked with 3% BSA in PBS (blocking buffer) for 1 hour at room temperature. After washing, scFv PPEs were added to the plates and incubated at room temperature for 1 hour. Following washing, mouse anti-v5 antibody (Invitrogen) in blocking buffer was added to detect scFv and incubated at room temperature for 1 hour. After washing, HRP-goat anti-mouse antibody (Jackson ImmunoResearch) was added and incubated at room temperature for 1 hour.

Row | binding result | Binder
1 | binds | G2(1C03) scFv (scFv, V domains shown) VH: QVQLVQSGAEVKKPGASVKVSCKASGYTFTTYYMHWVRQAPGQGLEWMGWINPNSGGTNYAQKFQGRVTMTRDTSTSTVYMELSSLRSEDTAVYYCARSDWFDPWGQGTLVTVSS VL: DIQMTQSPSSLSASVGDRVTITCRASQSVSNWLAWYQQKPGKAPKLLIYAASSLQSGVPSRFSGSGSGTDFTLTISSLQPEDFATYYCQQSYSTPTFGQGTKLEIK
2 | binds | G2(2A10) scFv (scFv, V domains shown) VH: EVQLLESGAEVKKPGASVKVSCKASGYSFTDYIVHWVRQAPGQGLEWMGWINPYSGGTKYAQKFQGRVTMTRDTSTSTVYMELSSLRSEDTAVYYCARVLQEGMDVWGQGTLVTVSS VL: DIQMTQSPSSLSASVGDRVTITCRASQSISSYLNWYQQKPGKAPKLLIYGVSSLQSGVPSRFSGSGSGTDFTLTISSLQPEDFATYYCQQSYSNPTFGQGTKVEIK
3 | binds | G2(2E07) scFv (scFv, V domains shown) VH: QVQLVQSGAEVKKPGASVKVSCKASGGTFSSATISWVRQAPGQGLEWMGWIYPNSGGTVYAQKFQGRVTMTRDTSTSTVYMELSSLRSEDTAVYYCAATEWLGVWGQGTTVTVSS VL: DIQMTQSPSSLSASVGDRVTITCRASQSISTWLAWYQQKPGKAPKLLIYAASSLRSGVPSRFSGSGSGTDFTLTISSLQPEDFATYYCQQSYNTPYTFGQGTKLEIK
4 | binds | G2(2C06) scFv (scFv, V domains shown) VH: QVQLVQSGAEVKKPGASVKVSCKSSGYSFDSYVVNWVRQAPGQGLEWMGWINPNSGGTNYAQKFQGRVTMTRDTSTSTVYMELSSLRSEDTAVYYCARDWVLDYWGQGTLVTVSS VL: DIQMTQSPSSLSASVGDRVTITCRASQTISSWLAWYQQKPGKAPKLLIYAASSLQSGVPSRFSGSGSGTDFTLTISSLQPEDFATYYCQQSYSTPFTFGPGTKVDIK
5 | binds | G2(2C11) scFv (scFv, V domains shown) VH: QVQLVQSGAEVKKPGASVKVSCKASGGTFNNYAFSWVRQAPGQGLEWMGWINPNSGGTNYAQKFQGRVTMTRDTSTSTVYMELSSLRSEDTAVYYCARDGVAVASDYWGQGTLVTVSS VL: DIQMTQSPSSLSASVGDRVTITCRASQGISNYLAWYQQKPGKAPKLLIYAASTLQSGVPSRFSGSGSGTDFTLTISSLQPEDFATYYCQQSYSVPYSFGQGTKLEIK
6 | binds | G2(2B08) scFv (scFv, V domains shown) VH: QVQLVQSGAEVKKPGASVKVSCKASGYTLTSHLIHWVRQAPGQGLEWMGWINPNSGGTNYAQKFQGRVTMTRDTSTSTVYMELSSLRSEDTAVYYCARERRSGMDVWGQGTTVTVSS VL: DIQMTQSPSSLSASVGDRVTITCRASQGISNYLAWYQQKPGKAPKLLIYAASRLESGVPSRFSGSGSGTDFTLTISSLQPEDFATYYCQQSYSIPLTFGGGTKVEIK
7 | binds | G2(1H10) scFv (scFv, V domains shown) VH: QVQLVQSGAEVKKPGASVKVSCKASGGTFSSYAISWVRQAPGQGLEWMGWINPNNGGTNYAQKFQGRVTMTRDTSTSTVYMELSSLRSEDTAVYYCARDSGVGMDVWGQGTTVTVSS VL: DIQMTQSPSSLSASVGDRVTITCRASQSISKWLAWYQQKPGKAPKLLIYAASSLQSGVPSRFSGSGSGTDFTLTISSLQPEDFATYYCQQSYSAPYTFGQGTKVEIK
8 | binds | G2(1D07) scFv (scFv, V domains shown) VH: QVQLVQSGAEVKKPGASVKVSCKASGYTFTSYGISWVRQAPGQGLEWMGWISAYNGYTNYAQNLQGRVTMTRDTSTSTVYMELSSLRSEDTAVYYCARDQFYGGNSGGHDYWGQGTLVTVSS VL: DIQMTQSPSSLSASVGDRVTITCQASQDISNYLNWYQQKPGKAPKLLIYAASSLQSGVPSRFSGSGSGTDFTLTISSLQPEDFATYYCQQSYSTPLTFGGGTKLEIK
9 | binds | G2(1G12) scFv (scFv, V domains shown) VH: QVQLVQSGAEVKKPGASVKVSCKASGYTFTSYLMHWVRQAPGQGLEWMGWISPNSGGTNYAQKFQGRVTMTRDTSTSTVYMELSSLRSEDTAVYYCARGDWFDPWGQGTLVTVSS VL: DIQMTQSPSSLSASVGDRVTITCQASQDISNYLNWYQQKPGKAPKLLIYGASRLQSGVPSRFSGSGSGTDFTLTISSLQPEDFATYYCQQSYSTPYTFGQGTKLEIK
10 | binds | G2(2E03) scFv (scFv, V domains shown) VH: EVQLLQSGAEVKKPGSSVKVSCKASGGTFSSYAISWVRQAPGQGLEWMGWINPNSGGTISAPNFQGRVTMTRDTSTSTVYMELSSLRSEDTAVYYCARANWLDYWGQGTLVTVSS VL: DIQMTQSPSSLSASVGDRVTITCRASQSISRWLAWYQQKPGKAPKLLIYAASTVQSGVPSRFSGSGSGTDFTLTISSLQPEDFATYYCQQSYSTPYTFGQGTKLEIK
11 | binds | G2(1C02) scFv (scFv, V domains shown) VH: QVQLVQSGAEVKKPGASVKVSCKASGYTFTSYGISWVRQAPGQGLEWMGWINPNSGGTNYAQKFQGRVTMTRDTSTSTVYMELSSLRSEDTAVYYCARGWELGYWGQGTLVTVSS VL: DIQMTQSPSSLSASVGDRVTITCRASQSISNWLAWYQQKPGKAPKLLIYAASSLQSGVPSRFSGSGSGTDFTLTISSLQPEDFATYYCQQSYSAPYTFGPGTKVDIK
12 | binds | G2(2H11) scFv (scFv, V domains shown) VH: QVQLVQSGAEVKKPGASVKVSCKASGYTFSDYYVHWVRQAPGQGLEWMGWINPNSGGTNYAQKFQGRVTMTRDTSTSTVYMELSSLRSEDTAVYYCARGEWFDPWGQGTLVTVSS VL: DIQMTQSPSSLSASVGDRVTITCRASQSISSWLAWYQQKPGKAPKLLIYAASTLQSGVPSRFSGSGSGTDFTLTISSLQPEDFATYYCQQSYSTPFTFGPGTKVDIK
13 | binds | G2(1F12) scFv (scFv, V domains shown) VH: QVQLVQSGAEVKKPGASVKVSCKASGYTFTDYYMHWVRQAPGQGLEWMGWIYPNTGGTNYAQKFQGRVTMTRDTSTSTVYMELSSLRSEDTAVYYCARDYGGYVDYWGQGTLVTVSS VL: DIQMTQSPSSLSASVGDRVTITCQASQDIGSWLAWYQQKPGKAPKLLIYATSSLQSGVPSRFSGSGSGTDFTLTISSLQPEDFATYYCQQSYSTPYTFGQGTKLEIK
14 | binds | G2(1D03) scFv (scFv, V domains shown) VH: QVQLVQSGAEVKKPGASVKVSCKASGYTFTRYTINWVRQAPGQGLEWMGWINPNSGGANYAQKFQGRVTMTRDTSTSTVYMELSSLRSEDTAVYYCARGDWFDPWGQGTLVTVSS VL: DIQMTQSPSSLSASVGDRVTITCRASQSISTWLAWYQQKPGKAPKLLIYAASTLQSGVPSRFSGSGSGTDFTLTISSLQPEDFATYYCQQSYSTPYTFAQGTKLEIK
15 | binds | G2(1C09) scFv (scFv, V domains shown) VH: QVQLVQSGAEVKKPGASVKVSCKASGYTFSSYNMHWVRQAPGQGLEWMGWINGNTGGTNYAQKFQGRVTMTRDTSTSTVYMELSSLRSEDTAVYYCARGVNVDDFDYWGQGTLVTVSS VL: DIQMTQSPSSLSASVGDRVTITCRASQTISNYLNWYQQKPGKAPKLLIYAASNLQSGVPSRFSGSGSGTDFTLTISSLQPEDFATYYCQQSYSTPQTFGQGTKVEIK
16 | binds | G2(1E05) scFv (scFv, V domains shown) VH: QVQLVQSGAEVKKPGASVKVSCKASGYTFTDYNMHWVRQAPGQGLEWMGWMNPNSGGTNYAQKFQGRVTMTRDTSTSTVYMELSSLRSEDTAVYYCAREEDYWGQGTLVTVSS VL: DIQMTQSPSSLSASVGDRVTITCRASQSIGRWLAWYQQKPGKAPKLLIYAASSLQSGVPSRFSGSGSGTDFTLTISSLQPEDFATYYCQQSYSTPYSFGQGTKVEIK
17 | binds | G2(2H10) scFv (scFv, V domains shown) VH: QVQLVQSGAEVKKPGASVKVSCKASGYSFTRYNMHWVRQAPGQGLEWMGWINPNSGGTNYAQKFQGRVTMTRDTSTSTVYMELSSLRSEDTAVYYCARDGYSGLDVWGKGTTVTVSS VL: DIQMTQSPSSLSASVGDRVTITCRASQSISSWLAWYQQKPGKAPKLLIYGASSLQSGVPSRFSGSGSGTDFTLTISSLQPEDFATYYCQQSYSVPYSFGQGTKLEIK
18 | binds | G2(1G01) scFv (scFv, V domains shown) VH: QVQLVQSGAEVKKPGASVKVSCKASGYTFTSYGISWVRQAPGQGLEWMGWMNPNSGGTNYAQKFQGRVTMTRDTSTSTVYMELSSLRSEDTAVYYCARGEWLDYWGQGTLVTVSS VL: DIQMTQSPSSLSASVGDRVTITCRASQTISSWLAWYQQKPGKAPKLLIYAASSLQSGVPSRFSGSGSGTDFTLTISSLQPEDFATYYCQQSYGVPYTFGQGTKVEIK
19 | binds | G2(1B10) scFv (scFv, V domains shown) VH: EVQLLESGAEVKKPGASVKVSCKASGYTFTSYGISWVRQAPGQGLEWMGWINPYSGGTNYAQKLQGRVTMTRDTSTSTVYMELSSLRSEDTAVYYCARANWLDYWGQGTLVTVSS VL: DIQMTQSPSSLSASVGDRVTITCRASQSISSWLAWYQQKPGKAPKLLIYAASTLQSGVPSRFSGSGSGTDFTLTISSLQPEDFATYYCQQSYSSPYTFGPGTKVDIK
20 | binds | G2(1G07) scFv (scFv, V domains shown) VH: QVQLVQSGAEVKKPGASVKVSCKASGGTFSNYAINWVRQAPGQGLEWMGWISPYSGGTNYAQKFQGRVTMTRDTSTSTVYMELSSLRSEDTAVYYCARDSGSYFDYWGQGTLVTVSS VL: DIQMTQSPSSLSASVGDRVTITCQASQDISNYLNWYQQKPGKAPKLLIYAASTLQSGVPSRFSGSGSGTDFTLTISSLQPEDFATYYCQQTYAIPLTFGGGTKVEIK
21 | binds | G2(1G03) scFv (scFv, V domains shown) VH: EVQLLESGAEVKKPGASVKVSCKASGYTFTSYAMNWVRQAPGQGLEWMGWMNPNSGGTKYAQKFQGRVTMTRDTSTSTVYMELSSLRSEDTAVYYCAREGPAALDVWGQGTLVTVSS VL: DIQMTQSPSSLSASVGDRVTITCRASQGISRWLAWYQQKPGKAPKLLIYAASTLQPGVPSRFSGSGSGTDFTLTISSLQPEDFATYYCQQSYIAPFTFGPGTKVDIK
22 | binds | G2(1A10) scFv (scFv, V domains shown) VH: QVQLVQSGAEVKKPGASVKVSCKASGGTFSSYAFSWVRQAPGQGLEWMGWINPDTGYTRYAQKFQGRVTMTRDTSTSTVYMELSSLRSEDTAVYYCARGDYTGNWYFDLWGRGTLVTVSS VL: DIQMTQSPSSLSASVGDRVTITCRASRDIGRAVGWYQQKPGKAPKLLIYAASSLQSGVPSRFSGSGSGTDFTLTISSLQPEDFATYYCQQLDSYPFTFGPGTKVDIK
